In patent US20200339702A1 (ULTRAHUMAN THIRTEEN, published 2020):
Changes are numbered by the printed parent chain. Names may count otherwise.

T1: rhesus ERBB3 on transiently transfected HEK-293 cells (rhesus monkey (Macaca mulatta), UniProt P21860 20-1342 (human entry))
T1 construct: also called rhesus ERBB3+ HEK-293 cells
T1 chain: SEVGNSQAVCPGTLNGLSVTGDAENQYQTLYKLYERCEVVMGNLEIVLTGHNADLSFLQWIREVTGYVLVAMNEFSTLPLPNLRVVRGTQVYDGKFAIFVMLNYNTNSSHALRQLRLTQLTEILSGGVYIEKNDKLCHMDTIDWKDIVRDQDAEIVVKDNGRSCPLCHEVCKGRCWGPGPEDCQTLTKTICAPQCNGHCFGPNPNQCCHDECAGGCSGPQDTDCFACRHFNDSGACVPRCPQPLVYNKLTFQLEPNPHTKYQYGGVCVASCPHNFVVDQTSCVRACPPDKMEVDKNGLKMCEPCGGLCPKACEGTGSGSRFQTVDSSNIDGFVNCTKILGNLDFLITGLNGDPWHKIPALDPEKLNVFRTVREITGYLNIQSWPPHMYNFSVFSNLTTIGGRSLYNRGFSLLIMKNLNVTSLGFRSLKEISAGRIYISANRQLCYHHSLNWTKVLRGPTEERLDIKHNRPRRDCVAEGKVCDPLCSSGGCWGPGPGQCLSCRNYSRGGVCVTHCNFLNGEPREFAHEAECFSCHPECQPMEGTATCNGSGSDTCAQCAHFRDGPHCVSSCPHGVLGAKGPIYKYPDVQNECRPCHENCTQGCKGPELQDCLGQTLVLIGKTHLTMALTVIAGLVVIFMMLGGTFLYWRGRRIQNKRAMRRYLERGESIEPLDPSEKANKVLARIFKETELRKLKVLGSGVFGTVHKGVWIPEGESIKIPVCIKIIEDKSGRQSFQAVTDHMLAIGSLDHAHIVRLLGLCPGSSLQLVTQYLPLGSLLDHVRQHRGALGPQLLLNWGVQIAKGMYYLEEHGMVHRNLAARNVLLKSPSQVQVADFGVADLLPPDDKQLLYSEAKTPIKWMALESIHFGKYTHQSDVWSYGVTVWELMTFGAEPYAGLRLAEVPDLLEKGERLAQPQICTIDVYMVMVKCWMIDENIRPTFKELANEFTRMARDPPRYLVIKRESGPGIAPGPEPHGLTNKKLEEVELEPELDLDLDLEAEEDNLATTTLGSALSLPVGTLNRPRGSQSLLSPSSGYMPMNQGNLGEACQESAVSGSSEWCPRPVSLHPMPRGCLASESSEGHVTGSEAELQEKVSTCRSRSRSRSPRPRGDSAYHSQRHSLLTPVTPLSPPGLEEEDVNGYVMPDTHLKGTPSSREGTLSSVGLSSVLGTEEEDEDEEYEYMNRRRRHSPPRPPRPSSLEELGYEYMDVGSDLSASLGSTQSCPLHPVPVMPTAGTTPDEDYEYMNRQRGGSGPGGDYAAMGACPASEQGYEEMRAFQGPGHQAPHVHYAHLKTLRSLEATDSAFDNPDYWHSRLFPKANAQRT

T2: rhesus monkey ERBB3 His tag, monomeric (rhesus monkey (Macaca mulatta), UniProt P21860 20-643 (human entry), limits assumed)
T2 chain: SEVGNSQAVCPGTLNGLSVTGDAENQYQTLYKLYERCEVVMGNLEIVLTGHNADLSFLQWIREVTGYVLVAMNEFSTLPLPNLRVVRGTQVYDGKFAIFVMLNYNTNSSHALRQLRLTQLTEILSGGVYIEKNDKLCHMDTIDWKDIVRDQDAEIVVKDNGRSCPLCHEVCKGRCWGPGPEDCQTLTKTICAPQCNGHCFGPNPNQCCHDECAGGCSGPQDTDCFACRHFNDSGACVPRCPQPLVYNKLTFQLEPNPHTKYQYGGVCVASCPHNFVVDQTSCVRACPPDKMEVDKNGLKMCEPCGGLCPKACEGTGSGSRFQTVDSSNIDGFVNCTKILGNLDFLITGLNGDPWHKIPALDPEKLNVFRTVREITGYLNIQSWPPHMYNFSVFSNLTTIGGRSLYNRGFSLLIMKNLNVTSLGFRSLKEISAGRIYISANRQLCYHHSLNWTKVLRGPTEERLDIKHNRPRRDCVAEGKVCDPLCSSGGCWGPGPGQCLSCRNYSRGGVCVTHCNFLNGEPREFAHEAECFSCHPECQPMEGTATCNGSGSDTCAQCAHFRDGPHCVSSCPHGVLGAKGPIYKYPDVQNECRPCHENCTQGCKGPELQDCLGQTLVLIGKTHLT

B1: 15G11 IgG1null (antibody, V domains shown)
VH: QVQLVESGGGLVKPGGSLRLSCAASGFTFSDYGMSWIRQAPGKGLEWVSTISDSGSYTYYPDSVKGRFTISRDNAKNSLYLQMNSLRAEDTAVYYCARELGDYDGFDYWGQGTLVTVSS
VL: DIQMTQSPSSLSASVGDRVTITCRASQEISSYLSWYQQKPGKAPKLLIYAASSLDSGVPSRFSGSGSGTDFTLTISSLQPEDFATYYCLQYDSTPYTFGGGTKVEIK
notes: Human IgG1null (L234A, L235A, G237A) and human Ckappa
B2: 09H02 IgG1null (antibody, V domains shown)
VH: B1 VH with G33S, S54G
VL: B1 VL with E28S, D55Q, Y96L
notes: Human IgG1null and human Ckappa; also called 09HO2
B3: 11H02 IgG1null (antibody, V domains shown)
VH: B1 VH with P61A, L100W, Y108N
VL: B1 VL with E28I, D92Y, Y96L
notes: Human IgG1null and human Ckappa
B4: 15D03 IgG1null (antibody, V domains shown)
VH: B1 VH with T58I, P61A, L100W, Y108H
VL: B1 VL with D55Q, Y96L
notes: as for B3
B5: 15D10 IgG1null (antibody, V domains shown)
VH: B1 VH with S54G, P61A, S63N, L100W, Y108F
VL: B1 VL with E28S, S53T, D55Q, Y96L
notes: as for B1
B6: 15E02 IgG1null (antibody, V domains shown)
VH: B1 VH with S56T, Y57T, T58I, P61A, S63N, L100Y
VL: B1 VL with E28S, D55Q, Y96L
notes: as for B3
B7: 16B09 IgG1null (antibody, V domains shown)
VH: B1 VH with G33S, S56T, L100W, Y108F
VL: B1 VL with S53T, D55Q, Y96L
notes: as for B1
B8: 17H10 IgG1null (antibody, V domains shown)
VH: B1 VH with S54G, P61A, L100W, Y108E
VL: B1 VL with E28S, S31G, S53T, D55Q
notes: as for B3
B9: MH1 IgG1null (antibody, V domains shown)
VH: B1 VH with T58I, P61A
VL: B1 VL with E28S, D55Q, Y96L
notes: Designer (Maximally Humanized) clone; Human IgG1null and human Ckappa
B10: MH4 IgG1null (antibody, V domains shown)
VH: B1 VH with T58I, P61A, L100W, Y108E
VL: B1 VL with E28S, D55Q, Y96L
notes: as for B9
B11: MH5 IgG1null (antibody, V domains shown)
VH: B1 VH with Y57T, T58I, P61A, L100Y
VL: B1 VL with E28S, D55Q, Y96L
notes: as for B9
B12: MH2 IgG1null (antibody, V domains shown)
VH: B1 VH with T58I, P61A, L100W, Y108F
VL: B1 VL with E28S, D55Q, Y96L
notes: as for B9

Target: T1, rhesus ERBB3 on transiently transfected …
Assay: flow cytometry, rhesus ERBB3-transfected HEK-293
Experimental: (§1) Purified IgGs were tested in FACs for binding to human and rhesus monkey ERBB3 expressed on transiently transfected HEK-293 cells and HEK-293 wild-type cells. The IgG samples were titrated in three-fold serial dilutions starting at 500 nM to 0.008 nM. Binding of IgGs was detected with a mouse anti-human IgG conjugated to FITC. Results were analyzed by examining the Mean Fluorescence Intensity (MFI) of 10000 cells per sample in the BL-1 channel detector of a flow cytometer (Attune™ NxT Acoustic Focusing Cytometer, Invitrogen/ThermoFisher Scientific).
(§2) Antibodies to ERBB3 were analysed for concentration-dependent binding at the cell surface via flow cytometry. HEK-293 cells were transiently transfected with either human or rhesus ERBB3 full-length cDNAs. Anti-ERBB3 IgGs and an isotype control were then all tested in IgG1null format, over a concentration range of 500-0.008 nM for binding to human (FIG. 5A) and rhesus (FIG. 5B) transfected cells.

Row | Binder | maximum MFI, fold over isotype control background [fold]
1 | B1 | > 20
2 | B2 | > 20
3 | B3 | > 20
4 | B4 | > 20
5 | B5 | > 20
6 | B6 | > 20
7 | B7 | > 20
8 | B8 | > 20
9 | B9 | > 20
10 | B10 | > 20
11 | B11 | > 20
12 | B12 | > 20

Target: T2, rhesus monkey ERBB3 His tag, monomeric
Assay: SPR (Biacore), captured IgG, monomeric ERBB3-His analyte
Experimental: (§3) Affinity (KD) of purified IgGs was determined via SPR with antigen in-solution on a Biacore® 3000 (GE). A mouse anti-human antibody (CH1 specific) was immobilized on a CM5 Sensor Chip to a level of 2000 RU in acetate buffer at pH 4.5 using amine coupling following the Wizard instructions for two channels. One channel was used for background signal correction. The standard running buffer HBS-EP pH 7.4 was used. Regeneration was performed with a single injection of 10 μl of 10 mM Glycine at pH 1.5 at […]. IgG samples were injected for 2 minutes at 50 nM at 30 μl/min followed by an off-rate of 60 seconds. The monomeric antigen (human ERBB3 His tagged or rhesus monkey ERBB3 His tag) was injected in two fold serial dilutions from 3 nM down to 0.2 nM, for 2 minutes at 30 μl/min followed by an off-rate of 300 seconds. The obtained sensorgrams were analysed using the Biacore® 3000 evaluation (BlAevaluation) software. The KD was calculated by simultaneous fitting of the association and dissociation phases to a 1:1 Langmuir binding model.
(§4) Biacore® analyses of binding affinity were performed for all IgGs to solution-phase, monomeric human and rhesus ERBB3 proteins.

Row | Binder | Kd [nM] | koff [s⁻¹] | kon [M⁻¹ s⁻¹]
13 | B1 | 0.33 | 0.0011 | 3.3e+06
14 | B2 | 0.25 | 0.0027 | 1.1e+07
15 | B3 | 2.1 | 0.037 | 1.7e+07
16 | B4 | 0.26 | 0.0047 | 1.8e+07
17 | B5 | 0.54 | 0.0018 | 3.3e+06
18 | B6 | 2.5 | 0.0095 | 3.7e+06
19 | B7 | 0.21 | 0.0027 | 1.3e+07
20 | B8 | 0.65 | 0.0018 | 2.7e+06
21 | B9 | 0.45 | 0.0056 | 1.3e+07
22 | B10 | 0.21 | 0.0047 | 2.2e+07
23 | B11 | 0.51 | 0.006 | 1.2e+07
24 | B12 | 0.23 | 0.0048 | 2e+07

Target: T3, human ERBB3 His tagged, monomeric (human, UniProt P21860 20-643, biotinylated in the Alphascreen assays (sites not given))
T3 construct: Used unbiotinylated as Biacore analyte and biotinylated in Alphascreen; treated as one molecule; also called human ERBB3-His (Acrobiosystems); biotinylated monomeric human ERBB3
Assay: as above
Experimental: as §3, §4

Row | Binder | Kd [nM] | koff [s⁻¹] | kon [M⁻¹ s⁻¹]
25 | B1 | 0.078 | 0.0012 | 1.6e+07
26 | B2 | 0.43 | 0.0013 | 3.1e+06
27 | B3 | 1.3 | 0.0081 | 6.1e+06
28 | B4 | 0.26 | 0.003 | 1.1e+07
29 | B5 | 0.14 | 0.0019 | 1.4e+07
30 | B6 | 0.61 | 0.0039 | 6.3e+06
31 | B7 | 0.089 | 0.0014 | 1.6e+07
32 | B8 | 0.19 | 0.0017 | 9.3e+06
33 | B9 | 0.51 | 0.0035 | 6.8e+06
34 | B10 | 0.26 | 0.0029 | 1.1e+07
35 | B11 | 0.71 | 0.0041 | 5.8e+06
36 | B12 | 0.27 | 0.0029 | 1.1e+07

Target: T4, human ERBB3 on transiently transfected HEK-293 cells (human, UniProt P21860 20-1342)
T4 construct: also called human ERBB3+ HEK-293 cells
Assay: flow cytometry, human ERBB3-transfected HEK-293
Experimental: as §1, §2

Row | Binder | maximum MFI, fold over isotype control background [fold]
37 | B1 | > 20
38 | B2 | > 20
39 | B3 | > 20
40 | B4 | > 20
41 | B5 | > 20
42 | B6 | > 20
43 | B7 | > 20
44 | B8 | > 20
45 | B9 | > 20
46 | B10 | > 20
47 | B11 | > 20
48 | B12 | > 20
